Reference: article doi:10.1101/2021.11.20.466133

Columns and labels:
[1] = target: MsDisA_(1-158) (only N-terminal domain-1) (Mycobacterium smegmatis mc2155); assay: SEC-MALS
[2] = target: MsDisA_(1-316) (domains 1 and 2) (Mycobacterium smegmatis mc2155); assay: SEC-MALS
[3] = target: MsDisA_(132-372) (domains 2 and 3) (Mycobacterium smegmatis mc2155); assay: SEC-MALS
[4] = target: Mycobacterium smegmatis DNA integrity scanning protein (MsDisA), c-di-AMP synthase (Mycobacterium smegmatis mc2155); assay: negative-stain TEM
[5] = target: Mycobacterium smegmatis DNA integrity scanning protein (MsDisA), c-di-AMP synthase (Mycobacterium smegmatis mc2155); assay: SEC-MALS
[6] = target: Mycobacterium smegmatis DNA integrity scanning protein (MsDisA), c-di-AMP synthase (Mycobacterium smegmatis mc2155); assay: cryo-EM structure

MsDisA_(1-158) (only N-terminal domain-1) (domain or fragment)
stoichiometry N [1]: 8

MsDisA_(1-316) (domains 1 and 2) (domain or fragment)
stoichiometry N [2]: 8

MsDisA_(132-372) (domains 2 and 3) (domain or fragment)
stoichiometry N [3]: 2

Mycobacterium smegmatis DNA integrity scanning protein (MsDisA), c-di-AMP synthase (enzyme)
stoichiometry N [4]: 8
stoichiometry N [5]: 8
stoichiometry N [6]: 8
